One assay has as its system BCL-1 cells. The assay can be described thus: IgM secretion by retrovirally transduced BCL-1 cells (ELISA). In kind it is cell-based. As for the experimental part:
Mouse splenocytes or purified B cells (purified mature B cells were isolated from spleen and lymph nodes by magnetic CD43 depletion or B220 magnetic bead selection, Miltenyi Biotech, Auburn Calif.) were plated at 1×10^6 cells/ml in complete media containing RPMI 1640 supplemented with 10% fetal calf serum (FBS)(Hyclone Laboratories), glutamine (2 mM), penicillin (50 units/ml), streptomycin (50 μg/ml), Hepes (100 mM), nonessential amino acids (1×) sodium pyruvate (1 mM) and β-ME (50 μM) and stimulated with anti-CD40(1 μg/ml)(Pharmigen) or LPS (20 μg/ml)(Sigma). Cytokines (R&D Systems, Minneapolis, Minn.) were used at IL-4 (20 ng/ml), IL-2 (20 ng/ml), Il-5 (20 ng/ml), IL-6 (20 ng/ml ), IL-10 (20 ng/ml ) and IL-13 (20 ng/ml). Stimulated B cells were split to a cell concentration of 1×10^6 cells/ml with fresh media every 24 h. The BCL1 (CWS13.20-3B3 ATCC CRL 1699) cell line was cultured in RPMI media supplemented with 10% FBS, gentamicin (20 μg/ml), and β-ME (50 μM). To induce differentiation cells were plated at 2×10^5 cells/ml and treated with recombinant mouse IL-2 and IL-5 (20 ng/ml) (R&D systems).
Assays to measure immunoglobulin or cytokine levels in culture supernatants were performed as described (e.g., Hodge et al., 1996 Immunity. 4:397-405 or Science. 1996 274:1903-5).
The XBP-1 cDNAs for the unspliced (XBP-1u/s) and the spliced (XBP-1s) forms were PCR-amplified from the total RNA of untreated and tunicamycin treated NIH3T3 cells, respectively, with a primer set (5′-[…]-3′ (SEQ ID NO: 7) and 5′-[…]-3′) (SEQ ID NO: 8). XBP-1u form was generated by a PCR-based mutagenesis from XBP-unspliced/s cDNA so that the two G residues at position 532 and 535 were changed to A without changing amino acid sequences in the XBP-1u open reading frame. Numbers are based on the sequences from gene bank database (NM_013842 [gi:13775155]). These XBP-1 cDNAs were inserted into the GFP-RV retroviral vector by using blunt end ligation (Sambrook et al., 1989). EFFECTENE transfection (Quiagen) was used to introduce the DNA into the Phoenix cell line as described by manufacturer (e.g., Reimold et al., 2001 Nature. 412:300-7 or Int Immunol. 2001 13:241-8). Viral supernatants were harvested after 48 hours and frozen at −80° C. for later use. B cells were purified from mouse spleens using CD43 depletion or positive selection with B220+ magnetic beads as described by the manufacturer (MidiMacs, Miltenyi Biotech). B cell purity was generally near 95% as confirmed by flow cytometry. The B cells (10^6 cells /ml) were then activated in culture with LPS 10 μg/ml and F (ab′)2 anti-IgM (5 μg/ml Southern Biotechnology Associates Inc.) for 24 hours. […]

For another assay, the system named is spliced XBP-1. The assay can be described thus: Inhibition of transactivation function of spliced XBP-1, luciferase in NIH 3T3 cells. It counts as cell-based. Particulars: NIH 3T3, 200 ng spliced XBP-1, 200 ng mutant. As for the experimental part: Versions of XBP-1 with various deletions of the C terminal transcription activating domain (e.g., consisting of the N terminal 225, 188, or 136 amino acids of the spliced form of XBP-1) that expressed high levels of protein by western analysis were created. The proteins were tested for their ability to inhibit the transactivation function of spliced XBP-1. Both the 188 and 136 N terminal mutants were extremely potent inhibitors (effective at a 1:1 ratio) of the spliced XBP-1. NIH 3T3 cells expressing XBP-1uc constructs were transfected with 200 ng of spliced XBP-1, yielding a relative luciferase activity of 44.5. 200 ng of XBP-N188 lowered the luciferase level to 1.8 and 200 ng of XBP-N136 lowered the luciferase activity to 2.2.

The values that follow come from US20040170622A1, “Methods and compositions for modulating XBP-1 activity” (President and Fellows of Harvard College, priority 2002, published 2004).

B1: XBP-1s: vector encoding only the spliced form of murine XBP-1, a protein of 371 aa (protein)
chain: MVVVAAAPSAATAAPKVLLLSGQPASGGRALPLMVPGPRAAGSEASGTPQARKRQRLTHLSPEEKALRRKLKNRVAAQTARDRKKARMSELEQQVVDLEEENHKLQLENQLLREKTHGLVVENQELRTRLGMDTLDPDEVPEVEAKGSGVRLVAGSAESAAGAGPVVTSPEHLPMDSDTVASSDSESDILLGILDKLDPVMFFKCPSPESASLEELPEVYPEGPSSLPASLSLSVGTSSAKLEAINELIRFDHVYTKPLVLEIPSETESQTNVVVKIEEAPLSSSEEDHPEFIVSVKKEPLEDDFIPELGISNLLSSSHCLRPPSCLLDAHSDCGYEGSPSPFSDMSSPLGTDHSWEDTFANELFPQLISV
With B1, the “IgM secretion compared to vector alone controls” value in the assay on BCL-1 cells (GFP positive BCL-1 cells treated with IL-2 and IL-5 for 3 days) is recorded as “approximately fourfold”. Further, in the assay on BCL-1 cells (GFP positive BCL-1 cells untreated with cytokine), the Ig secretion result is “neither XBP-1u/s nor XBP-1s forms were able to induce Ig secretion”. Moreover, the relative luciferase activity in the assay with spliced XBP-1 stood at 44.5.
